Experimental findings from patent publication US20180072782A1 (UNIVERSITY OF GEORGIA RESEARCH FOUNDATION, published 2018) are described below.

The experiment deals with T1, Cytoplasmic FMR1-interacting protein 1 (CYFIP1), endogenous in MDA-MB-231 cells (human, UniProt Q7L576 1-1253).
T1 construct: Endogenous protein of a human breast cancer cell line, detected by western blot; also called SRA1
The experiment can be described thus: avidin-biotin pull-down with biotinylated peptide from treated MDA-MB-231 cells, western blot. The method, then:
Specially, to determine the physical interaction with individual peptides, MDA-MB-231 cells were pretreated with 10 μM biotin-labeled peptides for 24 hours and lysates were incubated with immobilized avidin resin overnight at 4° C. The pull down samples were subjected to SDS-PAGE followed by Western blot analysis.
A general note: In western blotting, separated proteins are transferred to a membrane and probed.

Bridges are numbered along the chain shown (N, C = ends). [ ]: non-standard residue; d: D form. The star is where a group is joined. Biotin = O=C1N[C@H]2[C@H](CS[C@H]2CCCCC(=O)*)N1; S5 = C=CCCC[C@](C)(N)C(=O)O; AEEEA = NCCOCCOCCOCC(=O)O

T1 sequence (Q7L576 whole entry): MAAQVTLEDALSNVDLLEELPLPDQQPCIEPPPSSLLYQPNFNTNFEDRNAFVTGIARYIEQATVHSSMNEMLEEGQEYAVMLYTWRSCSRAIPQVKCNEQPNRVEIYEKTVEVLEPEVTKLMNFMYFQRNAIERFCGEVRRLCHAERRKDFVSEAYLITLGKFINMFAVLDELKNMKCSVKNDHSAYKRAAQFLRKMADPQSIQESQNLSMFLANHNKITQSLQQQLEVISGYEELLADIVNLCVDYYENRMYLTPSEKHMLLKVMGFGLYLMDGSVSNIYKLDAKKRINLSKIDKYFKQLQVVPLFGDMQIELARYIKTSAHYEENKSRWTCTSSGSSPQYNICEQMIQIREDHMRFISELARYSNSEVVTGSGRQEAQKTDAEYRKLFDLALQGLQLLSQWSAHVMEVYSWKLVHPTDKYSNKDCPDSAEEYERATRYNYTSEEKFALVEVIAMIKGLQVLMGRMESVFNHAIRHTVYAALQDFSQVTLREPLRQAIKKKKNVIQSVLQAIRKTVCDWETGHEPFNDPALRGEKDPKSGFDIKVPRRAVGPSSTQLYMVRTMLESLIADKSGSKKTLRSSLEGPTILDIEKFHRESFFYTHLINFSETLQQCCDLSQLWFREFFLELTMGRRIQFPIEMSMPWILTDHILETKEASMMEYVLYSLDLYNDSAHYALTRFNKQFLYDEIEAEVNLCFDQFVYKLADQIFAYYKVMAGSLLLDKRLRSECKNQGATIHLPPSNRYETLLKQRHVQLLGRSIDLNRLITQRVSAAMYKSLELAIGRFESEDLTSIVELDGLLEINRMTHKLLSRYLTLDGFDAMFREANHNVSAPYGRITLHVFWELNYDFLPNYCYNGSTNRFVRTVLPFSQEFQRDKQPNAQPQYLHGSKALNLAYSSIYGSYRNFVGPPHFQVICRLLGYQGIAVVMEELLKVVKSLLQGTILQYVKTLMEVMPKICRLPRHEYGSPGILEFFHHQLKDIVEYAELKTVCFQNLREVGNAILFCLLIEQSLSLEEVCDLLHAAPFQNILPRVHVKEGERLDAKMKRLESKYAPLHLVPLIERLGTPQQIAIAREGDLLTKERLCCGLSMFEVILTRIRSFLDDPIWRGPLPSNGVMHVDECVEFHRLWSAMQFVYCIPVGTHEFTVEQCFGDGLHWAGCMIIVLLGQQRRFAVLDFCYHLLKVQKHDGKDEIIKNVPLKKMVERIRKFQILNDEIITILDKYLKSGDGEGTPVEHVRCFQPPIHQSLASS

B1: SCR2, scrambled stapled control peptide for WAHM2 (peptide)
peptide: {Biotin-AEEEA}-TRAILL[S5]ITK[S5]QNELK-NH2
modifications: staple 7-11; not fully specified
notes: Negative control; also called SCR peptides
For B1, the binding result is reported as “no binding (tested: 10 µM)”.

B2: SCR1, scrambled stapled control peptide for WAHM1 (peptide)
peptide: {Biotin-AEEEA}-SRA[S5]LLI[S5]TKIQNELK-NH2
modifications: staple 4-8; not fully specified
notes: Negative control; also called scrambled control (SCR) peptide 1; SCR peptides
With B2, the binding result is recorded as “no binding (tested: 10 µM)”.
